2 molecules from paper PMC10786121, “Rab29-dependent asymmetrical activation of leucine-rich repeat kinase 2” (Science (New York, N.Y.), 2023) can be followed below.

Assay [1] addresses leucine-rich repeat kinase 2 (LRRK2) (UniProt Q5S007). Put plainly: cryo-EM structure; complex reconstituted by mixing LRRK2, Rab29EM, GTP analog (GppNHp), ATP and Mg2+; three oligomeric assemblies (monomer, dimer, tetramer); C2 symmetry imposed for dimer and tetramer. The following applies: remark: other sources report otherwise.
Assay [2] shares this target. Put plainly: cryo-EM 2D classification; Rab29 T71A/S72A–LRRK2 complex; 2D classification performed with cross-correlation (fig. S9E). The following applies: remark: other sources report otherwise.
Assay [3] deals with T1, leucine-rich repeat kinase 2 (LRRK2) (UniProt Q5S007 1-2527).
T1 construct: leucine-rich repeat kinase 2 (LRRK2), wild type; domains ARM, ANK, LRR, ROC, COR, KIN, WD40; Near full-length LRRK2^peri could be modelled in the tetramer; Seen as monomer, dimer and tetramer in complex with Rab29; Also stands for the WT LRRK2 transfected into HEK293 cells in the functional rows; also called WT LRRK2; LRRK2^peri
Put plainly: cryo-EM structure; complex reconstituted by mixing LRRK2, Rab29EM, GTP analog (GppNHp), ATP and Mg2+; three oligomeric assemblies (monomer, dimer, tetramer); C2 symmetry imposed for dimer and tetramer. The note with it: both partners purified.

T1 sequence (Q5S007 whole entry): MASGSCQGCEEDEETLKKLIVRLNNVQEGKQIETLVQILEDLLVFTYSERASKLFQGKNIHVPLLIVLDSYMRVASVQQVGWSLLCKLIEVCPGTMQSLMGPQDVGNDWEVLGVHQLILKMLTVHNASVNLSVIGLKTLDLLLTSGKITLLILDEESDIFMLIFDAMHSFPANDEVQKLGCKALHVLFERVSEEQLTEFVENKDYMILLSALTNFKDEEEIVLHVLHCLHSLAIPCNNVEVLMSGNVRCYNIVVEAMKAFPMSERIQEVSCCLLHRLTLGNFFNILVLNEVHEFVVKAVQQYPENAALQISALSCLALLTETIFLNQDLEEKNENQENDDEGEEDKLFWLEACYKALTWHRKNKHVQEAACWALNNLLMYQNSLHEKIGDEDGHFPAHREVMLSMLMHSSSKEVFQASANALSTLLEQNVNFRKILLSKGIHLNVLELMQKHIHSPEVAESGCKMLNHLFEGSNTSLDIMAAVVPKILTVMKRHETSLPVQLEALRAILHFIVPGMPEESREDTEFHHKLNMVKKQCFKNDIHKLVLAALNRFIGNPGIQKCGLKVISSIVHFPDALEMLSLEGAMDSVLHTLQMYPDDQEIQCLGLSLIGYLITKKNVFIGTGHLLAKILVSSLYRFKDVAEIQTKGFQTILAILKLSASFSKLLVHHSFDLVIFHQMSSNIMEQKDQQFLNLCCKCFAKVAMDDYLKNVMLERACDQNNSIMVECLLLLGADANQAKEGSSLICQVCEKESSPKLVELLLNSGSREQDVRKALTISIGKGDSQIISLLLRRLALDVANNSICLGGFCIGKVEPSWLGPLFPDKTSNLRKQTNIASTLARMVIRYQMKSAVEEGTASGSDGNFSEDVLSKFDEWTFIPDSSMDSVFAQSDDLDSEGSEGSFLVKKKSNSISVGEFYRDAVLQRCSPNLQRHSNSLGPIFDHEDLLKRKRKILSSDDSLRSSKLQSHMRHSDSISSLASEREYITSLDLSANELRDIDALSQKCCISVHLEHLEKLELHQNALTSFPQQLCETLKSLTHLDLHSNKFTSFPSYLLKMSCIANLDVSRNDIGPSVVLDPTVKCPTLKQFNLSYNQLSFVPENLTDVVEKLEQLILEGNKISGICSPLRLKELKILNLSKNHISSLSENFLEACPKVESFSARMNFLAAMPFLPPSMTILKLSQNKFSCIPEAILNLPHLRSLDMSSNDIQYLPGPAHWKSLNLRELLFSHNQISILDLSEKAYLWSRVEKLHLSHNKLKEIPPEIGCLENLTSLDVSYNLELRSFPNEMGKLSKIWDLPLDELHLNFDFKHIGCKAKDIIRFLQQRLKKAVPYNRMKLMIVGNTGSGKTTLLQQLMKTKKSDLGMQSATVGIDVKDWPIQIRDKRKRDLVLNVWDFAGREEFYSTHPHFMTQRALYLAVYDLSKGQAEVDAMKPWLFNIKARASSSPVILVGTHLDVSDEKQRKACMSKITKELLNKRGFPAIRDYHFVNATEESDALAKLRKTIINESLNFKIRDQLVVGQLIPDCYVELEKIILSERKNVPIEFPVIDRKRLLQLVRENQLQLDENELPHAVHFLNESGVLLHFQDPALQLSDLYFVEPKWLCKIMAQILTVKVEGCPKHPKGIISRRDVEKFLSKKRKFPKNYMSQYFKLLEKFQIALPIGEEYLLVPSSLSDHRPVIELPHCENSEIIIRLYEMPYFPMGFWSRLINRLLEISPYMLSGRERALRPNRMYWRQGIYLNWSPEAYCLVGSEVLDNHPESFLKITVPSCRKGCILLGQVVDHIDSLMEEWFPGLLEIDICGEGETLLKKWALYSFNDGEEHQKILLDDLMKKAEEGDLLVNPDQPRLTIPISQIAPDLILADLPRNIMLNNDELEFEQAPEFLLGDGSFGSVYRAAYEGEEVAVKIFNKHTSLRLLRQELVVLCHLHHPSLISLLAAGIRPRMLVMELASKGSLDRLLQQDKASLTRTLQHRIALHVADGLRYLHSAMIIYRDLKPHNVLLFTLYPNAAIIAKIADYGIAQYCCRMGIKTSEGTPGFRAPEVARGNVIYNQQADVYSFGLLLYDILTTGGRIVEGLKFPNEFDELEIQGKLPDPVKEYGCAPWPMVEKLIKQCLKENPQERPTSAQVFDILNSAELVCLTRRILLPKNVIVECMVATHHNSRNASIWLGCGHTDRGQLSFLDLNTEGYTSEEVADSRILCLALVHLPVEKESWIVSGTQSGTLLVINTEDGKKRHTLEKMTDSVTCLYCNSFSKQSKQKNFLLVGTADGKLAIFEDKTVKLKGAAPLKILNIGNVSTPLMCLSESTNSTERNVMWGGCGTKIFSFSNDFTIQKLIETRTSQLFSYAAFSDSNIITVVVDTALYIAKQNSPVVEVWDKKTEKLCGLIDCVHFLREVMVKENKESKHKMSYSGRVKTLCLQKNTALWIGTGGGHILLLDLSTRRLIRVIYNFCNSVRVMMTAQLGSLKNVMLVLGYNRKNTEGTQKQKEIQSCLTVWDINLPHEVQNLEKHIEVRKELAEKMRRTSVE

For the molecule “leucine-rich repeat kinase 2 (LRRK2), Q5S007 1-2527”, the stoichiometry N in assay [1] and in assay [2] was 4 in each case.

B1: Rab29EM (Rab29 Q67L, T71A, S72A) (natural protein)
chain: MGSRDHLFKVLVVGDAAVGKTSLVQRYSQDSFSKHYKSTVGVDFALKVLQWSDYEIVRLQLWDIAGLERFAAMTRLYYRDASACVIMFDVTNATTFSNSQRWKQDLDSKLTLPNGEPVPCLLLANKCDLSPWAVSRDQIDRFSKENGFTGWTETSVKENKNINEAMRVLIEKMMRNS
notes: Rab29, a Rab GTPase encoded in the PARK16 locus, with three point mutations; constructs are in the supplementary Materials and Methods; also called Rab29^peri
As for B1, in assay [3], the “stoichiometry N” value stood at 1.

By stoichiometry N is commonly meant the number of molecules, sites or subunits per partner or assembly.
